Data on one substance can be found in article doi:10.1101/2021.04.15.439997.

Assay [1] deals with Strep-tagged glucose-6-phosphate dehydrogenase (G6PDH) from Synechocystis (Synechocystis sp. PCC 6803) (UniProt P73411).
Assay [2] shares this target. Nature of the assay: SEC-MALS.

Strep-tagged glucose-6-phosphate dehydrogenase (G6PDH) from Synechocystis (Synechocystis sp. PCC 6803), sequence (P73411 whole entry): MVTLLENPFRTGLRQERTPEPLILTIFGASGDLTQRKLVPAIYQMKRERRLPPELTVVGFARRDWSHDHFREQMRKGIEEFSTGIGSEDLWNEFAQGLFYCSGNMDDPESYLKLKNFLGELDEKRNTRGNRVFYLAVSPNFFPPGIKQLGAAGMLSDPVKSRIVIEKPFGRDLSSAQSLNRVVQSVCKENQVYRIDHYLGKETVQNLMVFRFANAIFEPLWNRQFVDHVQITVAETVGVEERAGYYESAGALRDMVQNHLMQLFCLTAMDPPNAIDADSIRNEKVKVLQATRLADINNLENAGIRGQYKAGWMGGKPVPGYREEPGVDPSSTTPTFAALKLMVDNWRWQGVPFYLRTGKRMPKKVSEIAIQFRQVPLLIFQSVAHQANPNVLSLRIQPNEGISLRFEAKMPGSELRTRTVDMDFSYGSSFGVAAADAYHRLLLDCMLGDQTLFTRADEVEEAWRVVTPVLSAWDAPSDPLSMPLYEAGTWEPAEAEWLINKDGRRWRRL

With “Strep-tagged oxidative pentose phosphate cycle protein (OpcA) from Synechocystis (natural protein)”, in assay [1], the G6PDH activity after pre-incubation of OpcA with DTTred, compared to the control came out at 30%; the G6PDH activity after pre-incubation of OpcA with Synechocystis thioredoxin TxrA turned out to be 10%; the G6PDH enzyme kinetics: substrate affinity with OpcA added turned out to be 6 fold. This substance also gave a stoichiometry N (subunits of OpcA per G6PDH tetramer) in assay [2] of 4.
